Assay results reported in the supplement of paper PMC9233669.
Variants at the floor of the assay were thinned out.

Legend:
[1] = tested on: biotinyl-Leu-oxazolone; experiment: self-aminoacylation, catalytic enhancement (BLO) (fold over background); higher = more active; k-Seq, kA / k0A0; sequences stand for … in GGGAAUGGAUCCACAUCUACGAAUUC…UUCACUGCAGACUUGACGAAGCUG
Procedure, shortened: (§1)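 Mutagenized RNA pools with a 21-nt variable region (0.43 μM) reacted with each biotinyl-aminoacyl-oxazolone at 2–1250 μM. Reactions ran in 50 μL HEPES/NaCl/KCl/MgCl2/CaCl2 buffer with 5% acetonitrile, pH 6.9–7.0, for 90 minutes at room temperature. Streptavidin-captured RNA was quantified by triplicate qPCR and Illumina sequencing, and per-sequence fraction reacted was fit to a pseudo-first-order model with 1000 bootstraps. Catalytic enhancement is median kA divided by the uncatalyzed rate, the low-activity peak of a bimodal Gaussian fit.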

[2] = tested on: biotinyl-Ile-oxazolone; experiment: self-aminoacylation, catalytic enhancement (BIO) (fold over background); higher = more active; k-Seq, kA / k0A0; sequences stand for … in GGGAAUGGAUCCACAUCUACGAAUUC…UUCACUGCAGACUUGACGAAGCUG
Procedure, shortened: as §1

[3] = tested on: biotinyl-Val-oxazolone; experiment: self-aminoacylation, catalytic enhancement (BVO) (fold over background); higher = more active; k-Seq, kA / k0A0; sequences stand for … in GGGAAUGGAUCCACAUCUACGAAUUC…UUCACUGCAGACUUGACGAAGCUG
Procedure, shortened: as §1

[4] = tested on: biotinyl-Trp-oxazolone; experiment: self-aminoacylation, catalytic enhancement (BWO) (fold over background); higher = more active; k-Seq, kA / k0A0; sequences stand for … in GGGAAUGGAUCCACAUCUACGAAUUC…UUCACUGCAGACUUGACGAAGCUG
Procedure, shortened: as §1

[5] = tested on: biotinyl-Met-oxazolone; experiment: self-aminoacylation, catalytic enhancement (BMO) (fold over background); higher = more active; k-Seq, kA / k0A0; sequences stand for … in GGGAAUGGAUCCACAUCUACGAAUUC…UUCACUGCAGACUUGACGAAGCUG
Procedure, shortened: as §1

[6] = tested on: biotinyl-Phe-oxazolone; experiment: self-aminoacylation, catalytic enhancement (BFO) (fold over background); higher = more active; k-Seq, kA / k0A0; sequences stand for … in GGGAAUGGAUCCACAUCUACGAAUUC…UUCACUGCAGACUUGACGAAGCUG
Procedure, shortened: as §1

Sequence	self-aminoacylation [1]	self-aminoacylation [2]	self-aminoacylation [3]	self-aminoacylation [4]	self-aminoacylation [5]	self-aminoacylation [6]
AUCCAACUAGGUCAUCGGGUG [Fam2.2 aminoacylation ribozyme variant]	9.99	5.82	4.93	8.01	8.53	80.9
AUCCACCAAGGUCAUCGGGUG [Fam2.2 aminoacylation ribozyme variant]	10.1	5.16	6.37	7.83	9.18	68.2
AUCCACCUAGAUCAUCGGGUG [Fam2.2 aminoacylation ribozyme variant]	4.88	3.37	3.26	4.45	3.25	23.2
AUCCACCUAGCUCAUCGGGUG [Fam2.2 aminoacylation ribozyme variant]	2.55	2.2	2.89	2.55	3.28	23.3
AUCCACCUAGGGCAUCGGGUG [Fam2.2 aminoacylation ribozyme variant]	5.15	3.45	4.02	4.35	4.46	22.1
AUCCACCUAGGUCAACGGGUG [Fam2.2 aminoacylation ribozyme variant]	4.15	2.4	3.34	4.49	3.17	30.3
AUCCACCUAGGUCACCGGGUG [Fam2.2 aminoacylation ribozyme variant]	6.1	4.14	4.47	6.67	5.52	40.4
AUCCACCUAGGUCAUCGAGUG [Fam2.2 aminoacylation ribozyme variant]	10.3	6.55	5.17	5.78	7.89	17.4
AUCCACCUAGGUCAUCGGAUG [Fam2.2 aminoacylation ribozyme variant]	1.11	1.4	1.65	1.04	1.19	0.726
AUCCACCUAGGUCAUCGGCUG [Fam2.2 aminoacylation ribozyme variant]	2.87	1.95	2.29	2.44	1.72	9.73
AUCCACCUAGGUCUUCGGGUG [Fam2.2 aminoacylation ribozyme variant]	6.56	4.4	6.01	6.45	5.09	37.1
AUCCACCUAGGUGAUCGGGUG [Fam2.2 aminoacylation ribozyme variant]	5.68	4.38	4.45	5.98	6.1	35.5
AUCCACCUAGGUUAUCGGGUG [Fam2.2 aminoacylation ribozyme variant]	4.84	3.44	4.45	5.62	4.13	32.1
AUCCACCUAUGUCAUCGGGUG [Fam2.2 aminoacylation ribozyme variant]	7.91	4.42	4.12	5.8	6.38	49.9
AUCCAUCUAGGUCAUCGGGUG [Fam2.2 aminoacylation ribozyme variant]	6.36	4.35	3.94	5.63	7.36	29.6
AUCGCCCUGGUCAUCGAGUGA [Fam2.1 aminoacylation ribozyme variant]	16	7.09	7.32	17.8	16.5	98.5
AUCUACCUAGGUCAUCGGGUG [Fam2.2 aminoacylation ribozyme variant]	12.1	6.54	6.18	8.66	10	51.1
AUCUCCCUGGUCAUCGAGUGA [Fam2.1 aminoacylation ribozyme variant]	9.06	4.57	4.7	10.2	9.05	27.2
AUGACACUGGUCAUCGAGUGA [Fam2.1 aminoacylation ribozyme variant]	6.42	3.42	3.05	6.47	5.48	25.8
AUGACCCUGGACAUCGAGUGA [Fam2.1 aminoacylation ribozyme variant]	3.95	2.27	2.11	5.26	5.12	15.9
AUGACCCUGGUCACCGAGUGA [Fam2.1 aminoacylation ribozyme variant]	11.7	3.68	5.03	9.23	10.5	45.5
AUGACCCUGGUCAUCCAGUGA [Fam2.1 aminoacylation ribozyme variant]	7.02	3.84	3.16	7.7	6.57	38.6
AUGACCCUGGUCAUCGAGUAA [Fam2.1 aminoacylation ribozyme variant]	10.2	3.71	3.51	8.31	10.1	31.5
AUGACCCUGGUCAUCGAGUGU [Fam2.1 aminoacylation ribozyme variant]	85.3	20.6	23.7	64.9	89.5	692
AUGACCCUGGUCCUCGAGUGA [Fam2.1 aminoacylation ribozyme variant]	3.2	1.88	1.77	3.81	3.2	22.1
AUGACCCUGGUUAUCGAGUGA [Fam2.1 aminoacylation ribozyme variant]	7.14	3.39	3.36	8.52	6.78	15.5

Sequence	self-aminoacylation [1]	self-aminoacylation [2]	self-aminoacylation [3]	self-aminoacylation [4]	self-aminoacylation [5]	self-aminoacylation [6]
AUGACCGUGGUCAUCGAGUGA [Fam2.1 aminoacylation ribozyme variant]	7.27	3.34	3.22	7.37	6.71	39.7
AUGCAACUAGGUCAUCGGGUG [Fam2.2 aminoacylation ribozyme variant]	9.82	6.38	5.58	8.26	8.13	56.2
AUGCACAUAGGUCAUCGGGUG [Fam2.2 aminoacylation ribozyme variant]	10.2	6.5	6.08	10.4	10.5	73.3
AUGCACCUAGGUCAUCGGGCG [Fam2.2 aminoacylation ribozyme variant]	3.22	2.08	2.47	2.53	2.37	13.5
AUGCACCUAGGUCAUUGGGUG [Fam2.2 aminoacylation ribozyme variant]	2.53	2.33	2.16	2.72	2.3	16.6
AUGCACCUAGGUCUUCGGGUG [Fam2.2 aminoacylation ribozyme variant]	4.14	3.64	4.2	5.59	4.93	40
AUGCACCUAGGUUAUCGGGUG [Fam2.2 aminoacylation ribozyme variant]	4.46	3.4	3.11	4.81	3.37	32.7
AUGCAGCUAGGUCAUCGGGUG [Fam2.2 aminoacylation ribozyme variant]	4.37	2.95	3.61	3.92	3.73	24.9
AUGCUUGCUAAUAGUCGCAAG [Fam3.1 aminoacylation ribozyme variant]	1.33	1.81	1.32	1.99	1.61	3.19
AUGUUUGAUAAUAGUCGCAAG [Fam3.1 aminoacylation ribozyme variant]	1.09	1.65	1.17	1.45	1.35	1.59
AUGUUUGCUAACAGUCGCAAG [Fam3.1 aminoacylation ribozyme variant]	1.49	1.59	1.43	3.34	1.61	5.92
AUGUUUGCUAAUAGUCGCUAG [Fam3.1 aminoacylation ribozyme variant]	1.06	1.19	1.08	1.28	1.06	1.82
AUUAACCUACGUCAUCGGGUG [Fam2.2 aminoacylation ribozyme variant]	8.3	3.99	3.84	5.8	6.52	47.5
AUUAACCUAGGGCAUCGGGUG [Fam2.2 aminoacylation ribozyme variant]	3.09	2.45	2.15	2.76	2.86	14.1
AUUAACCUAGGUCAUCCGGUG [Fam2.2 aminoacylation ribozyme variant]	4.91	3.59	3.29	5.68	5.02	29.5
AUUAACCUAGGUCAUCGGCUG [Fam2.2 aminoacylation ribozyme variant]	1.35	1.35	1.59	1.57	1.49	4.37
AUUAACCUAGGUCAUCGGGAG [Fam2.2 aminoacylation ribozyme variant]	1.34	1.14	1.14	0.979	0.94	1.18
AUUAACCUAGGUCCUCGGGUG [Fam2.2 aminoacylation ribozyme variant]	4.72	2.58	2.81	3.09	4.07	18
AUUAACCUAGGUUAUCGGGUG [Fam2.2 aminoacylation ribozyme variant]	3.46	2.5	2.19	2.84	3.1	17.9
AUUAACCUGCUCAUCGAGUGA [Fam2.1 aminoacylation ribozyme variant]	2.5	1.55	1.86	2.54	2.38	2.51
AUUAACCUGGUCAUCGAAUGA [Fam2.1 aminoacylation ribozyme variant]	1.09	1.07	1.07	0.742	0.959	0.933
AUUAACCUGGUCAUCGAGGGA [Fam2.1 aminoacylation ribozyme variant]	1.28	1.53	1.3	1.99	1.76	0.771
AUUAACCUGGUCAUCGAGUGG [Fam2.1 aminoacylation ribozyme variant]	2.11	1.25	1.2	2.03	1.63	2.19
AUUAACCUGGUCAUCGAGUGU [Fam2.1 aminoacylation ribozyme variant]	4.39	2.33	2.61	4.67	3.72	5.48
AUUAACCUGGUCAUCGAGUUA [Fam2.1 aminoacylation ribozyme variant]	1.06	1	1.02	0.836	1.34	0.827
